In patent US20030167129A1, “Binding compounds and methods for identifying binding compounds” (priority 2000, published 2003):
pEC50, pKd: −log10 of the molar value. Blank lines part the entries; values can stand above or below the molecule they belong to. Where a SMILES comes first, the peptide text is derived from it. Where no end group is shown, it is not given here. [ ]: non-standard residue; d: D form. pY = N[C@@H](Cc1ccc(OP(=O)(O)O)cc1)C(=O)O; 2Nal = N[C@@H](Cc1ccc2ccccc2c1)C(=O)O; Tic = O=C(O)[C@@H]1Cc2ccccc2CN1

What was measured:
CXCR4 = molecular target: T1, CXCR4 (Homo sapiens, UniProt P61073); assay: radioligand binding assay, [125I]-SDF-1α on membrane preparations of GST-CXCR4 (High Five); conditions: increasing [125I]-SDF-1α 0.5 nM to 10 nM; GST-CXCR4 (High Five) membranes; FIG. 7A; read-out: KD, saturation binding
T1 construct: A full-length clone was not isolated with the 3′ and 5′ primers; however, two halves were isolated and ligated together; made in house; host or cells: High Five (Trichoplusia ni) insect cells, baculovirus; membrane preparation
T1 sequence (P61073 whole entry): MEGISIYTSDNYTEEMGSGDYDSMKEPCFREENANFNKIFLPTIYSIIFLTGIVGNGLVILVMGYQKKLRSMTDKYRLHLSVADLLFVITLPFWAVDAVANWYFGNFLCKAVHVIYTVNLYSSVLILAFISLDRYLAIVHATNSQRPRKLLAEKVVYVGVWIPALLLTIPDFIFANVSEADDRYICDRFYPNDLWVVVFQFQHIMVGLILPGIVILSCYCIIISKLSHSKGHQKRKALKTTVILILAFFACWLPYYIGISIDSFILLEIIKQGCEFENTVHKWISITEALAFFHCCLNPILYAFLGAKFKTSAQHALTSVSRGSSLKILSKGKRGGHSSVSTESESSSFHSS
Method: Relative affinities were measured by modifying the radiolabel binding assay used in receptor purification. Therefore, the ability of these peptides to displace [1^251]-SDF-1 from purified CXCR4 membranes was measured.
Whole cells from Sf9 and High five cell lines were lysed using hypotonic buffers (10 mM Tris, pH 7.4, 5 mM EDTA), and membrane preparations were made by homogenization and centrifugation using standard techniques known to those skilled in the art. […] For filtration and washing, the reaction was transferred to Millipore Multiscreen filter plates (HATF 0.45 μm; pre-blocked with 10% BSA) (Bedford, Mass.), filtered using vacuum, washed 4-5 times with 200 μL ice-cold buffer, and radioactive counts bound were detected using scintillation counting. All points were done in triplicate. Uninfected cells were used as a control for this experiment. […] Analyses of KD and IC50 were performed using non-linear curve fitting in Kaleidagraph (software program sold by Synergy Software, Reading, Pa.).
The affinity for the receptor was determined using standard radioligand displacement methodology.

HIV IIIb = type: cell-based, HIV-1
Method: Several of these peptides have also been screened for activity in inhibition of HIV infectivity and determined to be effective in specifically blocking the entrance of HIV into cells with EC50's in the nM range. For example, the assays depicted in FIG. 12 confirm the inhibition of HIV infection by CXCR4 peptide inhibitors.
The anti-HIV activity of exemplary compounds was tested using established adherent HELA cells or Magi cell-based (Magi cell line incorporating the reporter genes) cell line infected with a variety of HIV-1 isolates. Inhibitory activity was determined using a reporter system. The cell line was modified to contain the gene for the HIV-LTR (long terminal repeat) promoter which is used by HIV after infection. This gene was coupled to an enzyme, β-galactosidase, which can cleave a substrate, CPRG (Chlorophenol red β-D-galactoside) which gives rise to a colored signal or FDG (Fluorescein di-Galactoside) which gives rise to a fluorescent signal. Thus, if the cell becomes infected with HIV, it couples to the HIV-LTR promoter, producing the enzyme β-galactosidase, which then cleaves the CPRG substrate giving rise to a measurable absorbance signal, for example, at or about 595 nm. […]
Measurements were taken four days after infection. […] EC50's were determined graphically using Kaleidagraph, a software program sold by Synergy Software, Reading, PA. […]

SH2 (src) = molecular target: T2, SH2 (src) (Homo sapiens, UniProt P12931); conditions: binding domain SH2 (src); cited from earlier work
T2 construct: SH2 (src)

pKd (CXCR4): 8.49
Molecule: [^125I]-SDF-1α: radiolabeled SDF-1α, the radioligand of the CXCR4 binding assay

Molecule: CC[C@H](C)[C@H](NC(=O)[C@H](CC(C)C)NC(=O)[C@H](CO)NC(=O)[C@H](CCCNC(=N)N)NC(=O)[C@H](C)N)C(=O)N[C@@H](Cc1ccc2ccccc2c1)C(=O)N[C@@H](CCCNC(=N)N)C(=O)N1Cc2ccccc2C[C@H]1C(=O)N[C@@H](C)C(=O)N[C@@H](CCCNC(=N)N)C(=O)N[C@@H](CCCNC(=N)N)C(=O)N[C@@H](Cc1ccc2ccccc2c1)C(=O)N[C@@H](CCCNC(=N)N)C(=O)N[C@@H](CCCNC(=N)N)C(N)=O [CPI-1500, ARSLI(2-Nal)R(Tic)ARR(2-Nal)RR] (H-ARSLI[2Nal]R[Tic]ARR[2Nal]RR-NH2; N-terminus assumed)
viral specificity (HIV IIIb; HIV IIIb versus R5 virus 9881): specificity for the HIV IIIb over the R5 virus 9881 | pEC50 (HIV IIIb; HIV IIIb, FIG. 12A, read-out: EC50, inhibition of infection of HIV IIIb): 6.55

Molecule: pYEEIY ([pY]EEIY)
pKd (SH2 (src)): 7.00
